Laboratory results taken from patent US20230002480A1.

What was measured:
Test in all cases: cell-based or functional assay
[1] = molecular target: HIV-1 Env of pseudovirus 191084 B7-19 (HIV-1)
[2] = molecular target: HIV-1 Env of pseudovirus 235-47 (HIV-1)
[3] = molecular target: HIV-1 Env of pseudovirus 3016.v5.c45 (HIV-1)
[4] = molecular target: HIV-1 Env of pseudovirus 3365.v2.c2 (HIV-1)
[5] = molecular target: HIV-1 Env of pseudovirus 62357_14_D3_4589 (HIV-1)
[6] = molecular target: HIV-1 Env of pseudovirus 6540.v4.c1 (HIV-1)
[7] = molecular target: HIV-1 Env of pseudovirus 6952.v1.c20 (HIV-1)
[8] = molecular target: HIV-1 Env of pseudovirus A07412M1.vrc12 (HIV-1)
[9] = molecular target: HIV-1 Env of pseudovirus BJOX009000.02.4 (HIV-1)
[10] = molecular target: HIV-1 Env of pseudovirus BJOX010000.06.2 (HIV-1)
[11] = molecular target: HIV-1 Env of pseudovirus BJOX015000.11.5 (HIV-1)
[12] = molecular target: HIV-1 Env of pseudovirus C1080.c03 (HIV-1)
[13] = molecular target: HIV-1 Env of pseudovirus C4118.c09 (HIV-1)
[14] = molecular target: HIV-1 Env of pseudovirus CNE53 (HIV-1)
[15] = molecular target: HIV-1 Env of pseudovirus Ce0682_E4 (HIV-1)
[16] = molecular target: HIV-1 Env of pseudovirus Ce2010_F5 (HIV-1)
[17] = molecular target: HIV-1 Env of pseudovirus Ce2060_G9 (HIV-1)
[18] = molecular target: HIV-1 Env of pseudovirus Du156.12 (HIV-1)
[19] = molecular target: HIV-1 Env of pseudovirus Du422.1 (HIV-1)
[20] = molecular target: HIV-1 Env of pseudovirus HIV-0013095-2.11 (HIV-1)
[21] = molecular target: HIV-1 Env of pseudovirus HIV-16845-2.22 (HIV-1)
[22] = molecular target: HIV-1 Env of pseudovirus MS208.A1 (HIV-1)
[23] = molecular target: HIV-1 Env of pseudovirus P1981_C5_3 (HIV-1)
[24] = molecular target: HIV-1 Env of pseudovirus PVO.4 (HIV-1)
[25] = molecular target: HIV-1 Env of pseudovirus Q259.d2.17 (HIV-1)
[26] = molecular target: HIV-1 Env of pseudovirus Q461.e2 (HIV-1)
[27] = molecular target: HIV-1 Env of pseudovirus QH0692.42 (HIV-1)
[28] = molecular target: HIV-1 Env of pseudovirus R1166.c01 (HIV-1)
[29] = molecular target: HIV-1 Env of pseudovirus R3265.c06 (HIV-1)
[30] = molecular target: HIV-1 Env of pseudovirus REJO4541.67 (HIV-1)
[31] = molecular target: HIV-1 Env of pseudovirus T257-31 (HIV-1)
[32] = molecular target: HIV-1 Env of pseudovirus TRO.11 (HIV-1)
[33] = molecular target: HIV-1 Env of pseudovirus WEAU_d15_410_787 (HIV-1)
[34] = molecular target: HIV-1 Env of pseudovirus X1632_S2_B10 (HIV-1)
[35] = molecular target: HIV-1 Env of pseudovirus X2088_c9 (HIV-1)
[36] = molecular target: HIV-1 Env of pseudovirus ZM214M.PL15 (HIV-1)
[37] = molecular target: HIV-1 Env of pseudovirus ZM249M.PL1 (HIV-1)

## 3BNC117 (antibody)
[1]
  neutralization IC50: 0.07 µg/mL
  neutralization IC80: 0.23 µg/mL
[2]
  IC50, titer in TZM.bl cells: 0.03 µg/mL
  IC80, titer in TZM.bl cells: 0.12 µg/mL
[3]
  IC50, titer in TZM.bl cells: 1.38 µg/mL
  IC80, titer in TZM.bl cells: > 30 µg/mL
[4]
  neutralization IC50: 0.03 µg/mL
  neutralization IC80: 0.1 µg/mL
[5]
  neutralization IC50: 0.06 µg/mL
  neutralization IC80: 0.26 µg/mL
[6]
  IC50, titer in TZM.bl cells: > 50 µg/mL
  IC80, titer in TZM.bl cells: > 50 µg/mL
[7]
  IC50, titer in TZM.bl cells: 0.15 µg/mL
  IC80, titer in TZM.bl cells: 0.75 µg/mL
[8]
  IC50, titer in TZM.bl cells: 0.02 µg/mL
  IC80, titer in TZM.bl cells: 0.1 µg/mL
[9]
  IC50, titer in TZM.bl cells: 0.4 µg/mL
  IC80, titer in TZM.bl cells: 1.79 µg/mL
[10]
  IC50, titer in TZM.bl cells: 1.58 µg/mL
  IC80, titer in TZM.bl cells: 10.4 µg/mL
[11]
  IC50, titer in TZM.bl cells: 0.05 µg/mL
  IC80, titer in TZM.bl cells: 0.32 µg/mL
[12]
  IC50, titer in TZM.bl cells: 0.25 µg/mL
  IC80, titer in TZM.bl cells: 1.73 µg/mL
[13]
  IC50, titer in TZM.bl cells: 0.09 µg/mL
  IC80, titer in TZM.bl cells: 0.52 µg/mL
[14]
  neutralization IC50: 0.08 µg/mL
  neutralization IC80: 0.99 µg/mL
[15]
  neutralization IC50: 0.03 µg/mL
  neutralization IC80: 0.15 µg/mL
[16]
  neutralization IC50: 0.05 µg/mL
  neutralization IC80: 0.21 µg/mL
[17]
  neutralization IC50: 0.24 µg/mL
  neutralization IC80: 0.81 µg/mL
[18]
  neutralization IC50: 0.02 µg/mL
  neutralization IC80: 0.08 µg/mL
[19]
  neutralization IC50: > 50 µg/mL
  neutralization IC80: > 50 µg/mL
[20]
  neutralization IC50: 0.33 µg/mL
  neutralization IC80: 2.53 µg/mL
[21]
  neutralization IC50: 27.5 µg/mL
  neutralization IC80: > 50 µg/mL
[22]
  neutralization IC50: 0.01 µg/mL
  neutralization IC80: 0.09 µg/mL
[23]
  IC50, titer in TZM.bl cells: 0.74 µg/mL
  IC80, titer in TZM.bl cells: 3.62 µg/mL
[24]
  neutralization IC50: < 0.09 µg/mL
  neutralization IC80: 0.19 µg/mL
[25]
  neutralization IC50: 0.01 µg/mL
  neutralization IC80: 0.05 µg/mL
[26]
  neutralization IC50: 0.03 µg/mL
  neutralization IC80: 0.09 µg/mL
[27]
  neutralization IC50: 0.13 µg/mL
  neutralization IC80: 0.49 µg/mL
[28]
  IC50, titer in TZM.bl cells: 0.17 µg/mL
  IC80, titer in TZM.bl cells: 0.64 µg/mL
[29]
  IC50, titer in TZM.bl cells: 0.48 µg/mL
  IC80, titer in TZM.bl cells: 13 µg/mL
[30]
  neutralization IC50: 0.01 µg/mL
  neutralization IC80: 0.05 µg/mL
[31]
  neutralization IC50: 0.06 µg/mL
  neutralization IC80: 0.37 µg/mL
[32]
  neutralization IC50: < 0.09 µg/mL
  neutralization IC80: < 0.09 µg/mL
[33]
  neutralization IC50: 0.05 µg/mL
  neutralization IC80: 0.19 µg/mL
[34]
  IC50, titer in TZM.bl cells: 15.7 µg/mL
  IC80, titer in TZM.bl cells: > 50 µg/mL
[35]
  IC50, titer in TZM.bl cells: > 50 µg/mL
  IC80, titer in TZM.bl cells: > 50 µg/mL
[36]
  neutralization IC50: 0.06 µg/mL
  neutralization IC80: 0.52 µg/mL
[37]
  neutralization IC50: 0.03 µg/mL
  neutralization IC80: 0.11 µg/mL

## N49P6 (antibody)
[1]
  IC50: 0.062 µg/mL
  IC80: 0.257 µg/mL
  MPI: 100
[2]
  IC50: 13 µg/mL
  IC80: 46.4 µg/mL
  MPI: 82
[3]
  IC50: 21.7 µg/mL
  IC80: > 50 µg/mL
  MPI: 72
[4]
  IC50: 0.129 µg/mL
  IC80: 0.347 µg/mL
  MPI: 100
[5]
  IC50: 0.098 µg/mL
  IC80: 0.296 µg/mL
  MPI: 100
[6]
  IC50: 14 µg/mL
  IC80: 47.5 µg/mL
  MPI: 81
[7]
  IC50: 16.9 µg/mL
  IC80: > 50 µg/mL
  MPI: 78
[8]
  IC50: 0.229 µg/mL
  IC80: 0.786 µg/mL
  MPI: 100
[9]
  IC50: 0.32 µg/mL
  IC80: 1.46 µg/mL
  MPI: 100
[10]
  IC50: 0.681 µg/mL
  IC80: 3.53 µg/mL
  MPI: 100
[11]
  IC50: 0.07 µg/mL
  IC80: 0.312 µg/mL
  MPI: 100
[12]
  IC50: 0.181 µg/mL
  IC80: 0.661 µg/mL
  MPI: 100
[13]
  IC50: 0.092 µg/mL
  IC80: 0.243 µg/mL
  MPI: 100
[14]
  IC50: 0.249 µg/mL
  IC80: 0.871 µg/mL
  MPI: 99
[15]
  IC50: 0.095 µg/mL
  IC80: 0.315 µg/mL
  MPI: 100
[16]
  IC50: 0.124 µg/mL
  IC80: 0.749 µg/mL
  MPI: 100
[17]
  IC50: 0.888 µg/mL
  IC80: 4.81 µg/mL
  MPI: 100
[18]
  IC50: 0.082 µg/mL
  IC80: 0.28 µg/mL
  MPI: 100
[19]
  IC50: 44 µg/mL
  IC80: > 50 µg/mL
  MPI: 57
[20]
  IC50: 0.971 µg/mL
  IC80: 8.04 µg/mL
  MPI: 96
[21]
  IC50: 0.692 µg/mL
  IC80: 3.75 µg/mL
  MPI: 100
[22]
  IC50: 0.11 µg/mL
  IC80: 0.436 µg/mL
  MPI: 100
[23]
  IC50: 0.31 µg/mL
  IC80: 0.708 µg/mL
  MPI: 100
[24]
  IC50: 0.128 µg/mL
  IC80: 0.357 µg/mL
  MPI: 100
[25]
  IC50: 24.4 µg/mL
  IC80: > 50 µg/mL
  MPI: 75
[26]
  IC50: 0.173 µg/mL
  IC80: 0.622 µg/mL
  MPI: 100
[27]
  IC50: 0.652 µg/mL
  IC80: 2.28 µg/mL
  MPI: 100
[28]
  IC50: 0.102 µg/mL
  IC80: 0.344 µg/mL
  MPI: 100
[29]
  IC50: 0.101 µg/mL
  IC80: 0.443 µg/mL
  MPI: 100
[30]
  IC50: 0.066 µg/mL
  IC80: 0.215 µg/mL
  MPI: 100
[31]
  IC50: 0.147 µg/mL
  IC80: 0.535 µg/mL
  MPI: 100
[32]
  IC50: 0.061 µg/mL
  IC80: 0.19 µg/mL
  MPI: 100
[33]
  IC50: 0.07 µg/mL
  IC80: 0.188 µg/mL
  MPI: 100
[34]
  IC50: 23.1 µg/mL
  IC80: > 50 µg/mL
  MPI: 69
[35]
  IC50: 27 µg/mL
  IC80: > 50 µg/mL
  MPI: 65
[36]
  IC50: 0.51 µg/mL
  IC80: 1.8 µg/mL
  MPI: 100
[37]
  IC50: 0.112 µg/mL
  IC80: 0.376 µg/mL
  MPI: 100
